Test results as given in paper PMC10374912 (Nature Communications, 2023).

Target: T1, Rtg3-6XHis (recombinant, co-expressed with Rtg1) (C. albicans, UniProt A0A1D8PF20 1-520)
T1 construct: Rtg3, basic helix-loop-helix transcription factor of Candida albicans; also called tagged Rtg3; Rtg3X6his; source: E. coli BL21(DE3), co-expressed with Rtg1 from pColaDuet (pLC1452), purified (Ni-NTA, heparin, SEC)
T1 sequence (looked up): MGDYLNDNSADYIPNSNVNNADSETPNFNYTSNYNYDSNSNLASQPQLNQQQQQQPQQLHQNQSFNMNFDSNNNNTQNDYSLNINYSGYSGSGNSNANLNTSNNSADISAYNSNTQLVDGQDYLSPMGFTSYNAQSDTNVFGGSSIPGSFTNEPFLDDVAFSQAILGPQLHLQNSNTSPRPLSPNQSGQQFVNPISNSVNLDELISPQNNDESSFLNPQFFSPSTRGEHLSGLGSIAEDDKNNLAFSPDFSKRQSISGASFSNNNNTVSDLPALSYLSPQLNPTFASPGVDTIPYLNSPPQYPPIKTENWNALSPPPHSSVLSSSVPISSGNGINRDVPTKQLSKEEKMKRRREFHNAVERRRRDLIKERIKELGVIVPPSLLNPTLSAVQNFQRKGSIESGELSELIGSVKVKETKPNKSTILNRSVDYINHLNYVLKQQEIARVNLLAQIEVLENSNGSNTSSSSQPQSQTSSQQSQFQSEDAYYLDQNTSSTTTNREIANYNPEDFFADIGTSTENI
Test: SEC; Rtg1 and Rtg3-6XHis co-expressed in E. coli, co-purified by Ni-NTA and heparin, then HiLoad 16/600 Superdex 200 pg; 25 mM HEPES-NaOH pH 7.8, 300 mM NaCl, 5% glycerol; ambient temperature; fractions on SDS-PAGE, Coomassie
Conditions: both partners purified

B1: Rtg1 (recombinant, co-expressed with Rtg3-6XHis) (natural protein, C. albicans, UniProt Q5APP3 1-274, looked up)
chain: MSQFGEFYDTYSVENNQQYDTDLNNSTNTPIVQSKQRNDNIIPSINIKQEDFDSVLSGSLDVKKQLSSSLNTAGVGIGSSYGNGGISKPQSRRNSTYIKSHEGSDNEDEDDQNDKDVGNERKRRDNINDKIQELLTLIPSEFFQSNTDNNTKTGTKVVKENSPEDDAVKNSGTKDGKPNKGQILTKSVEYLQYLQNLIDENNRKEVELIMRLKTLELKAANRPSENIPIRIGYTSAEKALGEIGVGPCSEEYFKNVLIKSASTSKSGRRGSTSG
notes: Rtg1, basic helix-loop-helix transcription factor of Candida albicans; untagged; source: E. coli BL21(DE3), co-expressed with Rtg3-6XHis from pColaDuet (pLC1452), purified (Ni-NTA, heparin, SEC)
stoichiometry N: ~1
